Assay results taken from patent US20220016130.

Target: His-BRD4-N (amino acids 1-500), O60885

B1: GST-SPOP (protein)
chain: MSRVPSPPPPAEMSSGPVAESWCYTQIKVVKFSYMWTINNFSFCREEMGEVIKSSTFSSGANDKLKWCLRVNPKGLDEESKDYLSLYLLLVSCPKSEVRAKFKFSILNAKGEETKAMESQRAYRFVQGKDWGFKKFIRRDFLLDEANGLLPDDKLTLFCEVSVVQDSVNISGQNTMNMVKVPECRLADELGGLWENSRFTDCCLCVAGQEFQAHKAILAARSPVFSAMFEHEMEESKKNRVEINDVEPEVFKEMMCFIYTGKAPNLDKMADDLLAAADKYALERLKVMCEDALCSNLSVENAAEILILADLHSADQLKTQAVDFINYHASDVLETSGWKSMVVSHPHLVAEAYRSLASAQCPFLGPPRKRLKQS
- in vitro ubiquitination assay (western blot): The SPOP-CULLIN3-RBX1 complex was shown to catalyzed BRD4 ubiquitination in vitro
